Measurements from patent publication EP4707298A2 (INSTITUTO BUTANTAN, dated 2026).

Tests used:
[1] = molecular target: T1, rFGF2 antigen (recombinant fibroblast growth factor 2) (UniProt P09038 143-288, limits assumed); assay: SPR kinetic affinity assay
T1 construct: also called FGF2 protein

[2] = molecular target: rFGF2 antigen (recombinant fibroblast growth factor 2) (UniProt P09038); assay: SPR kinetic affinity assay
rFGF2 antigen (recombinant fibroblast growth factor 2) (UniProt P09038), sequence (P09038 143-288 limits assumed): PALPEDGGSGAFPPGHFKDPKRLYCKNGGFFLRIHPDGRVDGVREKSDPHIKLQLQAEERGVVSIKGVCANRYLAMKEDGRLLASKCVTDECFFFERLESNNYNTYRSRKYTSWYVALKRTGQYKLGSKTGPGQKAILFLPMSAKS

T1 sequence (P09038 143-288 limits assumed): as above

Kd [1] [nM]	koff [1] [s⁻¹]	kon [1] [M⁻¹ s⁻¹]	Kd [2] [nM]	koff [2] [s⁻¹]	kon [2] [M⁻¹ s⁻¹]	Binder
17	0.000834	49200				human anti-FGF2 antibody 85L117H (antibody, human IgG1, V domains shown, Human IgG1 format (AbVec vectors with human gamma1 HC and lambda LC constant regions)) VH: QVQLVQSGAELKRPGSSVKVSCRASGDTFKNYAITWVRQAPGQGLEWVGGIDPLVGVPNYTHRFQGRVTITADEPTSTTYMEFRDLTSDDTAVYYCARGVRDQHWSYFDSWGQGTLVTVSS VL: QSVLTQPPSASGTPGQTVNISCSGATSNIGGGSVNWYQQLPGAAPRLLIHSDNERASGVPDRFSGSKSGTSASLAISGLQSEDEADYFCASWDDSLDGHVVFGGGTKVTVL
			8.53	0.00326	382000	human anti-FGF2 antibody 32L98H (antibody, part only; not given: light chain 32L, human IgG1, V domains shown, part only) VH: QITLKESGPTLVKPTQTLTLTCTFSGFSLSTSGVGVGWIRQPPGEALEWLAVIHWNEANYYSPYLRSRLTITKDTSKNQMVLTVTNMDPVDTATYYCARGANSDSSGRLDAFDIWGQGTMVTVSS
9.1	0.00156	171000				human anti-FGF2 antibody 62K98H (antibody, human IgG1, V domains shown, Human IgG1 format (AbVec vectors with human gamma1 HC and kappa LC constant regions)) VH: QITLKESGPTLVKPTQTLTLTCTFSGFSLSTSGVGVGWIRQPPGEALEWLAVIHWNEANYYSPYLRSRLTITKDTSKNQMVLTVTNMDPVDTATYYCARGANSDSSGRLDAFDIWGQGTMVTVSS VL: DVVMTQSPLSLPVTLGQPASISCRSSQSLIYSDGNTRLYWFHQRPGQSPRRLIYGVSNRDSGVPDRFSGSGSGTDFTLKISRVEAEDVGVYYCMQSTHWPHTFGQGTKLEIK
